Data taken from the Human Domainome abundance scans (Beltran et al. 2025).
± gives the uncertainty stated by the source.

B1: E3 ubiquitin-protein ligase Midline-1, residues 172 to 214; numbered along this chain, O15344 (parent)
chain: GLMCLEHEDEKVNMYCVTDDQLICALCKLVGRHRDHQVAALSE

Variants of: B1
Assay: abundance fitness (aPCA) (normalised: wild type 0, dead -1); higher = more abundant; growth selection in yeast, the domain comes from the species named
Conditions: Homo sapiens

Abundance fitness, by site and new letter:
D19: G -0.72 ± 0.087, H -0.496 ± 0.16, K -0.759 ± 0.18, L -1.04 ± 0.22, M -1.1 ± 0.19, N -0.095 ± 0.22, P -0.723 ± 0.16, Q -0.557 ± 0.14, R -0.65 ± 0.073, S -0.377 ± 0.096, T -0.984 ± 0.31, V -1.02 ± 0.14, W -0.779 ± 0.1
D20: A -0.15 ± 0.059, C -0.308 ± 0.098, G -0.075 ± 0.05, H -0.106 ± 0.11, I -0.543 ± 0.15, L -0.404 ± 0.069, M -0.067 ± 0.27, N 0.033 ± 0.19, P -0.573 ± 0.1, Q 0.099 ± 0.064, R -0.083 ± 0.05, S -0.038 ± 0.064, T -0.232 ± 0.087, V -0.33 ± 0.064, W -0.753 ± 0.1, Y -0.464 ± 0.15
Q21: A 0.003 ± 0.058, C -0.174 ± 0.074, D -0.099 ± 0.11, E -0.047 ± 0.063, F -0.07 ± 0.28, G -0.133 ± 0.046, H 0.231 ± 0.15, I -0.133 ± 0.2, L -0.154 ± 0.07, M 0.052 ± 0.094, P -0.524 ± 0.14, R 0.031 ± 0.051, S 0.042 ± 0.074, T -0.064 ± 0.099, V 0.044 ± 0.05, W -0.682 ± 0.092, Y -0.171 ± 0.14
L22: E 0.377 ± 0.053, G 0.364 ± 0.063, H 0.482 ± 0.19, K 0.33 ± 0.076, M 0.004 ± 0.11, N 0.698 ± 0.26, P 0.428 ± 0.094, Q 0.29 ± 0.12, R 0.311 ± 0.059, S 0.316 ± 0.11, T 0.204 ± 0.075, V -0.025 ± 0.074, W 0.024 ± 0.079
I23: A 0.022 ± 0.068, C -0.081 ± 0.26, D -0.124 ± 0.16, E -0.233 ± 0.15, F -0.38 ± 0.31, G -0.19 ± 0.085, K -0.312 ± 0.098, L -0.019 ± 0.26, M 0.011 ± 0.089, R -0.237 ± 0.09, S -0.369 ± 0.23, T -0.1 ± 0.075, V 0.151 ± 0.082, W -0.423 ± 0.39
C24: A -0.799 ± 0.13, E -1.05 ± 0.14, G -0.814 ± 0.082, K -0.885 ± 0.25, L -0.868 ± 0.093, M -1.02 ± 0.39, N -0.656 ± 0.21, P -0.977 ± 0.18, Q -0.792 ± 0.15, R -1.02 ± 0.1, S -1.01 ± 0.13, T -0.706 ± 0.23, V -0.971 ± 0.13, W -0.978 ± 0.12, Y -0.364 ± 0.31
A25: C -0.097 ± 0.082, D -0.073 ± 0.094, E -0.018 ± 0.055, F -0.233 ± 0.12, G 0.105 ± 0.046, H 0.188 ± 0.093, I -0.266 ± 0.11, K -0.02 ± 0.062, L -0.28 ± 0.064, M -0.23 ± 0.1, P -0.124 ± 0.11, Q 0.087 ± 0.067, R 0.099 ± 0.052, T -0.16 ± 0.13, V -0.303 ± 0.095, W -0.181 ± 0.1
L26: A 0.083 ± 0.058, C 0.138 ± 0.066, D 0.089 ± 0.075, E 0.101 ± 0.054, H 0.353 ± 0.17, I -0.525 ± 0.21, K 0.193 ± 0.084, M 0.031 ± 0.078, N 0.193 ± 0.2, P 0.295 ± 0.1, Q 0.387 ± 0.077, R 0.272 ± 0.053, S 0.165 ± 0.062, T 0.189 ± 0.078, V 0.027 ± 0.052, Y -0.041 ± 0.11
C27: A -0.757 ± 0.081, D -0.328 ± 0.11, E -0.741 ± 0.13, G -0.696 ± 0.074, H -0.481 ± 0.31, I -0.538 ± 0.37, K -0.429 ± 0.43, L -0.883 ± 0.12, M -1.02 ± 0.2, N -0.478 ± 0.45, P -0.166 ± 0.17, Q -0.913 ± 0.2, S -0.807 ± 0.11, T -0.571 ± 0.14, V -1 ± 0.099, W -1.01 ± 0.11, Y -0.448 ± 0.35
K28: A 0.083 ± 0.059, C -0.148 ± 0.074, D -0.038 ± 0.35, E 0.007 ± 0.062, F -0.316 ± 0.22, G 0.013 ± 0.045, H 0.083 ± 0.098, I 0.061 ± 0.16, L -0.16 ± 0.054, M -0.114 ± 0.07, N -0.042 ± 0.085, P 0 ± 0.074, Q 0.288 ± 0.066, R 0.119 ± 0.05, S 0.013 ± 0.069, T 0.063 ± 0.06, V -0.396 ± 0.068, W -0.149 ± 0.083, Y -0.161 ± 0.082
L29: A 0.135 ± 0.053, C 0.025 ± 0.081, D 0.241 ± 0.079, E 0.211 ± 0.06, F -0.262 ± 0.14, G 0.213 ± 0.045, H 0.19 ± 0.061, I -0.205 ± 0.12, K 0.182 ± 0.073, M 0.086 ± 0.084, N 0.072 ± 0.093
